The assay concerns the target human cannabinoid receptor type 2 (CB2) (human) (UniProt P34972).

This note sets out measurements from article PMC9154745.

UniProt P34972, sequence (P34972 whole entry): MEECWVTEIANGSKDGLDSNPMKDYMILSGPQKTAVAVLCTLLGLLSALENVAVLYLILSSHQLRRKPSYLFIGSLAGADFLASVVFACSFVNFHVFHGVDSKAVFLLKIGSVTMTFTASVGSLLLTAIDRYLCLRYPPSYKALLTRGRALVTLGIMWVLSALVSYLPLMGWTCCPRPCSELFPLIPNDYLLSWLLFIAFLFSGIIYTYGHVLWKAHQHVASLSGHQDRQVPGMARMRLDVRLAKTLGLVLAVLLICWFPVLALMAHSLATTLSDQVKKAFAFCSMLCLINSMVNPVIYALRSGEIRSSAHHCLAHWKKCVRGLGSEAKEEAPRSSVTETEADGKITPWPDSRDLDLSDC

For the substance “osteogenic growth peptide (OGP), the 5-amino-acid cellular activator derived from OGP(1-14) (from UniProt P62805 99-103)”, the logEC50 of half-maximal inhibition of FSK-stimulated cAMP in CHO-hCB2 cells (bell-shaped dose-response curve, two independent experiments) was -12.1.
